Experiments:
[1] = target: Neuronal calcium sensor-1 (NCS-1), recombinant, myristoylated, reduced monomer (UniProt P62166); experiment: SEC; analytical gel filtration on Superdex 75 10/300 GL, 20 mM Tris-HCl pH 8.0, 150 mM NaCl, 1 mM DTT (non-oxidizing), with 0.1 mM ZnCl2 or 1 mM EGTA
[2] = target: Neuronal calcium sensor-1 (NCS-1), recombinant, myristoylated, reduced monomer (UniProt P62166); experiment: SDS-PAGE under non-reducing conditions (disulfide dimer); preparation of dNCS-1: NCS-1 2 mg/mL dialysed against 20 mM Tris-HCl pH 8.0, 150 mM NaCl, 1 mM H2O2, 4 °C, 3 h
[3] = target: Neuronal calcium sensor-1 (NCS-1), recombinant, myristoylated, reduced monomer (UniProt P62166); experiment: redox equilibrium with GSSG/GSH, SDS-PAGE under non-reducing conditions; 1.5 µM dNCS-1, 50 mM HEPES pH 7.4, 100 mM KCl, 0.1 mM CaCl2 or 1 mM MgCl2, 0.1 mM GSSG and 8.8 µM–72.4 mM GSH, anaerobic, 35 °C, 62 h; densitometry
[4] = target: Neuronal calcium sensor-1 (NCS-1), recombinant, myristoylated, reduced monomer (UniProt P62166); experiment: SDS-PAGE under non-reducing conditions (disulfide dimer); 20 μM reduced NCS-1 with 0.1–1000 μM H2O2, 20 mM Tris-HCl pH 8.0, 150 mM NaCl, with 1 mM MgCl2, 1 mM CaCl2, 0.1 mM ZnCl2 or their combinations (1% SDS in controls), 37 °C, 30 min; densitometry
[5] = target: Chimera GRK1^N-C, fusion protein containing regulatory domains of GRK1 (GRK1 1-191,512-557) (UniProt P28327); experiment: SPR; GRK1^N-C immobilised by amine coupling on a ProteOn GLH chip (up to 12,000 RU); analyte NCS-1 or dNCS-1 0.5 to 20 μM; 25 °C; 10 mM HEPES pH 7.4, 150 mM NaCl, 1 mM CaCl2, 0.05% Tween 20; global fits by the heterogeneous ligand model (both) or the bivalent analyte model (dNCS-1)
[6] = target: NCS-1 in HEK293 cells transfected with NCS-1-pCI-neo (UniProt P62166); experiment: Western blotting of cell lysates under non-reducing conditions (disulfide dimer); HEK293 cells transfected with NCS-1, 10 mM H2O2 for 30 min or longer, with or without Ca2+/ionomycin, EGTA, or Zn2+ with chloroquine; lysis with 10 mM iodoacetamide; dimer fraction by densitometry

UniProt P28327, sequence (P28327 other isoform, or with tags, fused parts or gaps mutant): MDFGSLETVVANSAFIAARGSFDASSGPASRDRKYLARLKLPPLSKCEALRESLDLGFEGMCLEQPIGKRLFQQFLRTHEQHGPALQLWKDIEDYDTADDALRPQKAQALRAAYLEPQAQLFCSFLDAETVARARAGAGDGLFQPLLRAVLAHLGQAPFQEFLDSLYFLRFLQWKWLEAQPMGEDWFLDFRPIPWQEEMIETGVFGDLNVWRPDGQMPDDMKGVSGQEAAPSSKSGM

stoichiometry N [1]	dNCS-1 in the dialysis mixture (1 mM H2O2) [2] [%]	dNCS-1 of total NCS-1 (Ca2+, Eh GSSG/GSH ~ −220 mV) [3] [%]	dimer content (Zn2+-bound NCS-1, H2O2) [4] [%]	dimer fraction of total protein (the forms of Figure 4B, H2O2) [4] [%]	stoichiometry N [4]	KD 1 (heterogeneous ligand model) [5] [nM]	KD 2 (heterogeneous ligand model) [5] [nM]	koff 1 (heterogeneous ligand model) [5] [s⁻¹]	koff 2 (heterogeneous ligand model) [5] [s⁻¹]	kon 1 (heterogeneous ligand model) [5] [M⁻¹ s⁻¹]	kon 2 (heterogeneous ligand model) [5] [M⁻¹ s⁻¹]	dimer content (prolonged incubation with Zn2+/H2O2) [6] [%]	fraction of dNCS-1 of total protein (H2O2 after Zn2+ with chloroquine) [6] [%]	fraction of the dimer of total NCS-1 (10 mM H2O2, 30 min) [6] [%]	stoichiometry N [6]	Substance
2	80	5 to 10	75	< 30	2	590	2700	0.00016	0.0044	267	1910	–	–	–	–	Neuronal calcium sensor-1 (NCS-1), recombinant, myristoylated, reduced monomer (from UniProt P62166 1-190) (natural protein)
–	–	–	–	–	–	–	–	–	–	–	–	25 to 30	9	4 to 5	2	NCS-1 in HEK293 cells transfected with NCS-1-pCI-neo (from UniProt P62166 1-190) (natural protein)
